The text below walks through data of PMC9377797, “Hypoxia-induced proteasomal degradation of DBC1 by SIAH2 in breast cancer progression” (eLife, 2022).

The target of one test is T1, His-DBC1 (human, UniProt Q8N163 1-923).
T1 construct: Deleted in breast cancer 1 (DBC1, CCAR2), human; also called His-tagged DBC1; source: E. coli BL21, purified
Briefly: pull-down; GST-SIAH2 and His-DBC1 proteins from E. coli incubated in vitro overnight, GST beads for 2 hr at 4°C; blotted with an anti-DBC1 antibody. As to conditions: both partners purified.

Test [1] deals with T2, N-terminal half of His-DBC1 (1–461) (human, UniProt Q8N163 1-461).
T2 construct: source: bacterially expressed (E. coli)
The description is as above. As to conditions: both partners purified.

T1 sequence (Q8N163 whole entry): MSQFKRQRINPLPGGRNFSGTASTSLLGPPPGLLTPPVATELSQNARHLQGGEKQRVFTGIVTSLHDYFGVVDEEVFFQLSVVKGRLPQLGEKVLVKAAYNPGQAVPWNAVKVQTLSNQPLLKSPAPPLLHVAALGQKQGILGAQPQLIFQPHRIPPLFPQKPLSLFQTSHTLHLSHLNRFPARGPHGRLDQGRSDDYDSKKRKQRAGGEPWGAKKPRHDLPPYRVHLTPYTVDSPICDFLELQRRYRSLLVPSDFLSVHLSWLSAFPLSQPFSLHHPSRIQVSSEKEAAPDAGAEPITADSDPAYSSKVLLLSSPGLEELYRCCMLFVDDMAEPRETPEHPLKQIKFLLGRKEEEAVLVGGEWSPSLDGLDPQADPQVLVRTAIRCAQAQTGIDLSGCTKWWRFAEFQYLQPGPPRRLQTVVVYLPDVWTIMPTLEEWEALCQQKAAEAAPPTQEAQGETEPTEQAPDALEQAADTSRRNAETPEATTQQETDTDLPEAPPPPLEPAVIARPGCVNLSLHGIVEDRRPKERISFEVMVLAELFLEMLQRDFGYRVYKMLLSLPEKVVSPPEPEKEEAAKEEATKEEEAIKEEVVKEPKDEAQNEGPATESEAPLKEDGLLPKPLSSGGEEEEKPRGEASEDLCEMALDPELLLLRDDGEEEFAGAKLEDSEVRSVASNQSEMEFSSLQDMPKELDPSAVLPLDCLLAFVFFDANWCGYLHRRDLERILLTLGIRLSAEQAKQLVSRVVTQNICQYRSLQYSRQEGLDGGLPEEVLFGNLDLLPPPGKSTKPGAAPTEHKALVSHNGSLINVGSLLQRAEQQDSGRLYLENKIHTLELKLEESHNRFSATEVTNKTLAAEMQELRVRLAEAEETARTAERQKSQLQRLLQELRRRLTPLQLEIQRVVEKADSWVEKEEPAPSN
T2 sequence (Q8N163 1-461): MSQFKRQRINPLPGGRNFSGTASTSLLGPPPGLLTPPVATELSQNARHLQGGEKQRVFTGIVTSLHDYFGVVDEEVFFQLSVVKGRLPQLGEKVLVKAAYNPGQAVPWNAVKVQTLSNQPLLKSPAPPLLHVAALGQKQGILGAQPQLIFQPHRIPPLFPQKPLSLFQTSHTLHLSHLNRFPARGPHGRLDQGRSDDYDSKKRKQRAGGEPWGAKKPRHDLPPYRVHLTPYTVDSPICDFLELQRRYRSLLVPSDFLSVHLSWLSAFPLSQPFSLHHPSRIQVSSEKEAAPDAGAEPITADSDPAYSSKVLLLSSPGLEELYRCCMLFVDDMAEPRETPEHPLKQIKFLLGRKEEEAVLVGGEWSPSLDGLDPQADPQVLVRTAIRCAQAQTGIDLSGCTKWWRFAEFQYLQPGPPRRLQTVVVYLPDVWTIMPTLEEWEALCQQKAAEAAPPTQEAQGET

B1: GST-SIAH2 (enzyme, human, UniProt O43255 1-324, looked up)
chain: MSRPSSTGPSANKPCSKQPPPQPQHTPSPAAPPAAATISAAGPGSSAVPAAAAVISGPGGGGGAGPVSPQHHELTSLFECPVCFDYVLPPILQCQAGHLVCNQCRQKLSCCPTCRGALTPSIRNLAMEKVASAVLFPCKYATTGCSLTLHHTEKPEHEDICEYRPYSCPCPGASCKWQGSLEAVMSHLMHAHKSITTLQGEDIVFLATDINLPGAVDWVMMQSCFGHHFMLVLEKQEKYEGHQQFFAIVLLIGTRKQAENFAYRLELNGNRRRLTWEATPRSIHDGVAAAIMNSDCLVFDTAIAHLFADNGNLGINVTISTCCP
notes: E3 ubiquitin ligase SIAH2, human, wild type; also called GST-tagged SIAH2; purified glutathione S-transferase (GST) SIAH2; source: E. coli BL21, purified
Consider B1, for which the binding result (with His-DBC1; in test [1]) was “binds” each time.
